Assay [1] has as its target mononucleosome with deletion of the histone H3 tail (human) (UniProt P04908). In words: AlphaScreen or HTRF. On the technique in general: Alpha assays give light when donor and acceptor beads are brought close together.
Assay [2] concerns the target mononucleosome with deletion of the histone H4 tail (human) (UniProt P04908). In words: AlphaScreen or HTRF.

In the case of “HIV-1 intasome assembled in the presence of LEDGF/p75 (from UniProt O75475 1-530) (complex)”, the decrease in the bridging signal against native nucleosomes in assay [1] and in assay [2] was 20% each time.

(Values after article PMC13367182.)
